Source: patent US20210253724A1

Key:
[1] = molecular target: human 4-1BB (CD137) on Jurkat-hu4-1BB-NFκB-luc2 reporter cells (human) (UniProt Q07011); experiment: cell-based or functional assay; set-up: AUC of NFκB-luciferase activation curve, no FAP+ cells / AUC of NFκB-luciferase activation curve, with WM-266-4 cells: unit not given beside the values
[2] = molecular target: human 4-1BB (CD137) on Jurkat-hu4-1BB-NFκB-luc2 reporter cells (human) (UniProt Q07011); experiment: cell-based or functional assay; set-up: AUC of NFκB-luciferase activation curve, no CEA+ cells / AUC of NFκB-luciferase activation curve, with CHO-k1-cynoCEACAM5 clone 8: unit not given beside the values
[3] = molecular target: human CEACAM5 (CEA) on cells (human) (UniProt P06731); experiment: flow cytometry on MKN45 cells; set-up: unit not given beside the values
Chain of human CEACAM5 (CEA) on cells (human) (P06731 35-685 E398K limits assumed): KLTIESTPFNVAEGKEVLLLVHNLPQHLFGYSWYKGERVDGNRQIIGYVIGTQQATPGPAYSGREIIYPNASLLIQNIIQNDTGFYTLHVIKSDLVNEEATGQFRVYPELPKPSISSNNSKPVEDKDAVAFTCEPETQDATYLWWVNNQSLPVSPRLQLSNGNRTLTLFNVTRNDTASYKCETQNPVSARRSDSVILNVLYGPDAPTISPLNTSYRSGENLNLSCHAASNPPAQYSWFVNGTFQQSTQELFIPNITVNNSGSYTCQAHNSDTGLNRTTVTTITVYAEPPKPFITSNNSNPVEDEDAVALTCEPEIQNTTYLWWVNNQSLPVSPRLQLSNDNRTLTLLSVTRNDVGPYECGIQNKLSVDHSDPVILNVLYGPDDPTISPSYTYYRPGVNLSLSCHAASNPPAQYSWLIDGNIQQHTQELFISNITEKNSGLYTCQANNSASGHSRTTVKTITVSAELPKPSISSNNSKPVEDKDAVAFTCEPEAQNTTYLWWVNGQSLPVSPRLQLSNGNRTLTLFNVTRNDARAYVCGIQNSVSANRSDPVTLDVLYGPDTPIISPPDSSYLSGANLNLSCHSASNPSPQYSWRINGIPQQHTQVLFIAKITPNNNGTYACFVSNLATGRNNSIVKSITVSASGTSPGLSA

[4] = molecular target: cynomolgus monkey CEACAM5 on CHO-k1-cynoCEACAM5 clone 8 cells (cynomolgus monkey); experiment: flow cytometry on CHO-k1-cynoCEACAM5 clone 8; set-up: unit not given beside the values
[5] = molecular target: human FAP on NIH/3T3-huFAP clone 19 cells (human) (UniProt Q12884); experiment: flow cytometry on NIH/3T3-huFAP clone 19 cells
[6] = molecular target: human CEACAM5 (CEA) on cells (human) (UniProt P06731); experiment: flow cytometry on CHO-k1-humanCEACAM5 clone 11
[7] = molecular target: human CEACAM5 (CEA) on cells (human) (UniProt P06731); experiment: flow cytometry on CHO-k1-humanCEACAM5 clone 12
[8] = molecular target: human CEACAM5 (CEA) on cells (human) (UniProt P06731); experiment: flow cytometry on CHO-k1-humanCEACAM5 clone 13

AUC of NFκB-luciferase activation curve, no FAP+ cells [1]: 286
AUC of NFκB-luciferase activation curve, with NIH/3T3-huFAP clone 19 cells [1]: 521
AUC of NFκB-luciferase activation curve, with WM-266-4 cells [1]: 384
AUC of NFκB-luciferase activation curve, no CEA+ cells [2]: 47
AUC of NFκB-luciferase activation curve, with CHO-k1-cynoCEACAM5 clone 8 [2]: 77
AUC of NFκB-luciferase activation curve, with CHO-k1-humanCEACAM5 clone 11 [2]: 264
AUC of NFκB-luciferase activation curve, with CHO-k1-humanCEACAM5 clone 12 [2]: 313
AUC [3]: 420
AUC [4]: 219
AUC [5]: 362
EC50 [5]: 2.29 nM
AUC [6]: 746
AUC [7]: 1190
AUC [8]: 1870
Substance: Untargeted (DP47) huIgG1 P329GLALA (antibody)
